Measured values reported in patent US5223421A, “Identification of methionine Nα-acetyltransferase” (The General Hospital Corporation, priority 1990, dated 1993).

Target: T1, yeast methionine acetyltransferase (M-N^α AT) (Saccharomyces cerevisiae, UniProt Q06504)
T1 construct: a crude yeast homogenate from the aaa1 mutant strain; endogenous in cells; host or cells: Saccharomyces cerevisiae strain T3A-a (aaa1), crude lysate
T1 sequence (Q06504 1-195): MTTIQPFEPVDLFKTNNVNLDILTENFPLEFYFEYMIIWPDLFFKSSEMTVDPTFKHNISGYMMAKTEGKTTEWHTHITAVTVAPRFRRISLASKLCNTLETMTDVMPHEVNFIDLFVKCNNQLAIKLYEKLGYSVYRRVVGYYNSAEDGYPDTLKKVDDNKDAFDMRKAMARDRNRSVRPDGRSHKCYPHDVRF
T1 sequence (Q12387 2-796 partner limits assumed): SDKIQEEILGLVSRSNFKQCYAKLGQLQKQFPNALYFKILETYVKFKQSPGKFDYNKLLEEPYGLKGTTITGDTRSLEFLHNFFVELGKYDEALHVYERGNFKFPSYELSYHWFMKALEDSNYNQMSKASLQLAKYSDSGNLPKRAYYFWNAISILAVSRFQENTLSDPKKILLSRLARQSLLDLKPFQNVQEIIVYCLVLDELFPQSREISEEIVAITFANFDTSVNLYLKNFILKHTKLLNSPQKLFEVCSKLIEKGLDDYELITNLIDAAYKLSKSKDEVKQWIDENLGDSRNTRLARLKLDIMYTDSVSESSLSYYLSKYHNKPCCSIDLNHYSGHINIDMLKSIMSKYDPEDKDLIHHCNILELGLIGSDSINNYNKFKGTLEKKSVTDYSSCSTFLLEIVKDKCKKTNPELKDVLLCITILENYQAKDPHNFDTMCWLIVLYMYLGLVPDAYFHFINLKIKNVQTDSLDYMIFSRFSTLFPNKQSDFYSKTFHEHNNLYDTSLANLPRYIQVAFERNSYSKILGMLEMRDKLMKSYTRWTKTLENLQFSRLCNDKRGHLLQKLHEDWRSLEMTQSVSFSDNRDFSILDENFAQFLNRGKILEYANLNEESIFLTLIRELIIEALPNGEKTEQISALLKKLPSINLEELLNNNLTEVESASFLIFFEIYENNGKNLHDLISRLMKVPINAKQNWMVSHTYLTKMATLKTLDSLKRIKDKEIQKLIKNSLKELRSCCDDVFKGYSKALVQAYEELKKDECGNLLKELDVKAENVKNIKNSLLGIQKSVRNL
Experiment: Relative activity of yeast methionine acetyltransferase for N^α -acetylation of synthetic peptides (PAI analogues)
Assay type: biochemical
Parameters: tested at 50 µM
Settings: Table 5; mean ± SD (N=3-5); normalized to yeast proteinase A inhibitor 3
Experimental: N^α -acetyltransferase activity was determined as previously described [Lee et al., J. Biol. Chem. 263:14948-14955 (1988)]. Aliquots of the lysate or chromatographic fractions were added to 1.5 ml Eppendorf tubes containing a reaction mixture of 50 mM HEPES, pH 7.4, 150 mM KCl, 1 mM DTT, 25 μM [^3 H] acetyl coenzyme A (0.5 μCi) and 50 μM synthetic peptide with an adjusted final volume of 100 μl. The assay mixture was incubated at 30° C. for 30 min. The reaction was stopped by adding 17 μl of 0.5M acetic acid and chilled in an ice bath. The reaction samples were filtered through SP membrane discs (Cuno) (previously pre-swollen in 0.5M acetic acid), and then washed three times with 1 ml of 0.5M acetic acid on a Millipore 1225 sampling manifold. The partially dried membranes were placed in scintillation cocktail and counted with a Beckman LS 3801 scintillation counter. One unit of activity was defined as the amount of enzyme able to transfer 1 pmol of [^3 H] acetyl group from [^3 H] acetyl coenzyme A to synthetic peptide per min under standard enzyme assay conditions defined above.
Proteinase A inhibitor 3 (PAI) (Tsunasawa et al., Methods Enzymol. 106:165-170 (1984); Wold, F., Trends Biochem Sci. 9:256-267 (1984); Driessen et al., CRC Crit. Rev. Biochem 18:281-325 (1985); Mullen et al., EMBO J. 8:2067-2075 (1989); Lee et al., J. Bacteriol. 171:5795-5802 (1989); Hershko et al., Proc. Natl. Acad. Sci. USA 81:7021-7025 (1984); Bachmair et al., Science 234:179-186 (1986); Arfin et al., Biochemistry 27:7979-7984 (1988); Persson et al., Eur. J. Biochem. 152:523-527 (1985); Huang al., Biochemistry 26:8242-8246 (1987); Lee et al., J. Biol. Chem. 263:14948-14955 (1988); Kamitani et al., J. Biol. Chem. 264:13188-13193 (1989)) is the only known yeast protein which is acetylated at its NH2 -terminal methionine residue (Biedermann et al., Carlsberg Res. Commun. 45:225-235 (1980)). […] The numbers in parentheses refer to the residue numbers, and the letters in parentheses refer to the amino acid sequence Abbreviations are as in FIG. 1. Data are reported as mean activity ±SD (N=3-5) and are normalized to the activity of the homogenate towards yeast proteinase A inhibitor 3. The sequence of this protein is:
Thus, by using PAI, its analogues and other peptides, the structural features of M-N^α AT substrates were studied. […] Only three of nineteen analogues were acetylated, although the efficiency of their acetylation varied from 9-55% (Asp>Glu>Gln). Although it was shown previously that iso-cytochrome c variant proteins (Met-Ile-Arg - - -, Met-Ile-Lys - - -, Met-Met-Asn - - -) can be N^α -acetylated in vivo (Tsunasawa et al., J. Biol. Chem. 260:5382-5391 (1985)), synthetic peptides mimicking the NH2 -terminal 24 amino acid residues of these iso-cytochrome c variants were not acetylated by the yeast M-N^αAT.

MNTDQQKVSEIFQSSKEKLQGDAK (MNTDQQKVSEIFQSSKEKLQGDAK) [Proteinase A Inhibitor 3 (1-24) (Yeast)]
Activity (%): 100 ± 5%
